Laboratory results from patent US20230333112 (published 2023).

Biological target: T1, human NKp30 (BKM0179) (human, UniProt O14931)
T1 chain: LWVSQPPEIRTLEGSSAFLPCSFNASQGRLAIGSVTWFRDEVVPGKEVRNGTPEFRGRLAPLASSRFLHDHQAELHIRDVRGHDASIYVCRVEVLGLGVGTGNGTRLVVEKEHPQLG
Test: SPR

B1: BJM1078 (BJM0407 parental) (antibody, V domains shown)
VH: EIQLLESGGGLVQPGGSLRLSCAVSGFSITTTGYHWNWVRQAPGKGLEWVGYIYSSGSTSYNPSLKSRFTISRDTSKNTFYLQMNSLRAEDTAVYYCARGDWHYFDYWGQGTMVTVSS
VL: QSVTTQPPSVSGAPGQRVTISCSGEKLSDKYVHWYQQLPGTAPKMLIYENDRRPSGVPDRFSGSNSGNSASLAITGLQAEDEADYFCQFWDSTNSAVFGGGTQLTVL
Kd: 1.48 nM
